Assay results taken from paper PMC2171589 (The Journal of Cell Biology, 2005).
One block for each binder: values may come before it.

Legend:
Experiment in all cases: pull-down
[1] = molecular target: ARFGAP1 as a GST fusion protein (GST-ARFGAP1) (UniProt Q62848 1-415)
[2] = molecular target: point mutant GAP (R50K) as GST fusion protein (GST-R50K GAP) (UniProt Q62848 1-415, R50K)
[3] = molecular target: ARFGAP1, wild-type, 6x-his tagged, soluble (UniProt Q62848 1-415)
[4] = molecular target: His-tagged, full-length, R50K point mutant GAP (UniProt Q62848 1-415, R50K)
Chain of His-tagged, full-length, R50K point mutant GAP (Q62848 whole entry R50K): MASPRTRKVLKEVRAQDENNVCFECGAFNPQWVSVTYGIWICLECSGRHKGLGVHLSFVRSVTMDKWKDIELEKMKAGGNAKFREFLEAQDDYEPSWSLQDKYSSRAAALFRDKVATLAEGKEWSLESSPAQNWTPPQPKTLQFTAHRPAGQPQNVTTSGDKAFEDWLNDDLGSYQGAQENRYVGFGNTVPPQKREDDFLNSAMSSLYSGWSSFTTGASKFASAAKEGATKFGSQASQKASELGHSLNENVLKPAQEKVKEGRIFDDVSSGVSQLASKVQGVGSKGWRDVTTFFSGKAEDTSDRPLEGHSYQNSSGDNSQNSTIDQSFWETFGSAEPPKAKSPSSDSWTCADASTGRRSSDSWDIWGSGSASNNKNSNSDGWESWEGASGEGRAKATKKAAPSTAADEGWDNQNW

Chain of ARFGAP1, wild-type, 6x-his tagged, soluble (Q62848 whole entry): as the sequence (Q62848 whole entry R50K) above, with K50R counted along it
Chain of ARFGAP1 as a GST fusion protein (GST-ARFGAP1) (Q62848 whole entry, the tested form may be a part): as the sequence (Q62848 whole entry R50K) above, with K50R counted along it
Chain of point mutant GAP (R50K) as GST fusion protein (GST-R50K GAP) (Q62848 whole entry R50K, the tested form may be a part): as the sequence (Q62848 whole entry R50K) above

binding result [1]: binds | binding result [2]: binds
B1: ARF1, full-length myristoylated form (ADP ribosylation factor 1) (natural protein)
chain: not shown
modifications: myristoylated

binding result [3]: binds | binding result [4]: binds
Binder: KKLETFKKTN (domain or fragment) [GST-Wbp1 (cytoplasmic domain of Wbp1 fused to GST)]
